Test results published in US20160113911A1, “METHODS AND COMPOSITIONS FOR THE TREATMENT OF CANCER” (THE GENERAL HOSPITAL CORPORATION, priority 2013, published 2016).

Legend:
H3K9me3 = assay: H3K9 demethylase activity of KDM4 variants in transfected cells; format: cell-based; set-up: key: + indicates active; − indicates inactive; +/− indicates partial acitivty; settings: KDM4A mutations
H3K36me3 = assay: H3K36 demethylase activity of KDM4A variants in transfected cells (immunofluorescence); format: cell-based; set-up: key: + indicates active; − indicates inactive; +/− indicates partial acitivty; settings: KDM4A mutations
Description: The indicated NHF-tagged KDM4A deletion constructs were transfected into RPE cells grown on coverslips in 10 cm dishes using X-tremeGENE 9™ DNA transfection reagent (Roche). H3K36me3 and subcellular localization were assayed by examining transfected cells (positive for HA staining; HA.11 Covance) following fixation in 3.7% PFA in PBS (Whetstine et al., 2006).
All immunofluorescence experiments were performed as in (Black et al., 2013). For the localization experiment a minimum of 50 cells were blinded and scored. For the catalytic activity, cells overexpressing a high level of KDM4A WT or SNP-A482 were analyzed in a non quantitative manner.

Molecule | H3k9 Demethylase Activity (H3K9me3) | H3k36 Demethylase Activity (H3K36me3)
2A-R218W: KDM4A mutation (protein) MASESETLNPSARIMTFYPTMEEFRNFSRYIAYIESQGAHRAGLAKVVPPKEWKPRASYDDIDDLVIPAPIQQLVTGQSGLFTQYNIQKKAMTVREFRKIANSDKYCTPRYSEFEELERKYWKNLTFNPPIYGADVNGTLYEKHVDEWNIGRLRTILDLVEKESGITIEGVNTPYLYFGMWKTSFAWHTEDMDLYSINYLHFGEPKSWYSVPPEHGKWLERLAKGFFPGSAQSCEAFLRHKMTLISPLMLKKYGIPFDKVTQEAGEFMITFPYGYHAGFNHGFNCAESTNFATRRWIEYGKQAVLCSCRKDMVKISMDVFVRKFQPERYKLWKAGKDNTVIDHTLPTPEAAEFLKESELPPRAGNEEECPEEDMEGVEDGEEGDLKTSLAKHRIGTKRHRVCLEIPQEVSQSELFPKEDLSSEQYEMTECPAALAPVRPTHSSVRQVEDGLTFPDYSDSTEVKFEELKNVKLEEEDEEEEQAAAALDLSVNPASVGGRLVFSGSKKKSSSSLGSGSSRDSISSDSETSEPLSCRAQGQTGVLTVHSYAKGDGRVTVGEPCTRKKGSAARSFSERELAEVADEYMFSLEENKKSKGRRQPLSKLPRHHPLVLQECVSDDETSEQLTPEEEAEETEAWAKPLSQLWQNRPPNFEAEKEFNETMAQQAPHCAVCMIFQTYHQVEFGGFNQNCGNASDLAPQKQRTKPLIPEMCFTSTGCSTDINLSTPYLEEDGTSILVSCKKCSVRVHASCYGVPPAKASEDWMCSRCSANALEEDCCLCSLRGGALQRANDDRWVHVSCAVAILEARFVNIAERSPVDVSKIPLPRFKLKCIFCKKRRKRTAGCCVQCSHGRCPTAFHVSCAQAAGVMMQPDDWPFVVFITCFRHKIPNLERAKGALQSITAGQKVISKHKNGRFYQCEVVRLTTETFYEVNFDDGSFSDNLYPEDIVSQDCLQFGPPAEGEVVQVRWTDGQVYGAKFVASHPIQMYQVEFEDGSQLVVKRDDVYTLDEELPKRVKSRLSVASDMRFNEIFTEKEVKQEKKRQRVINSRYREDYIEPALYRAIME | + | −
2A-G225C: KDM4A mutation (protein) MASESETLNPSARIMTFYPTMEEFRNFSRYIAYIESQGAHRAGLAKVVPPKEWKPRASYDDIDDLVIPAPIQQLVTGQSGLFTQYNIQKKAMTVREFRKIANSDKYCTPRYSEFEELERKYWKNLTFNPPIYGADVNGTLYEKHVDEWNIGRLRTILDLVEKESGITIEGVNTPYLYFGMWKTSFAWHTEDMDLYSINYLHFGEPKSWYSVPPEHGKRLERLAKCFFPGSAQSCEAFLRHKMTLISPLMLKKYGIPFDKVTQEAGEFMITFPYGYHAGFNHGFNCAESTNFATRRWIEYGKQAVLCSCRKDMVKISMDVFVRKFQPERYKLWKAGKDNTVIDHTLPTPEAAEFLKESELPPRAGNEEECPEEDMEGVEDGEEGDLKTSLAKHRIGTKRHRVCLEIPQEVSQSELFPKEDLSSEQYEMTECPAALAPVRPTHSSVRQVEDGLTFPDYSDSTEVKFEELKNVKLEEEDEEEEQAAAALDLSVNPASVGGRLVFSGSKKKSSSSLGSGSSRDSISSDSETSEPLSCRAQGQTGVLTVHSYAKGDGRVTVGEPCTRKKGSAARSFSERELAEVADEYMFSLEENKKSKGRRQPLSKLPRHHPLVLQECVSDDETSEQLTPEEEAEETEAWAKPLSQLWQNRPPNFEAEKEFNETMAQQAPHCAVCMIFQTYHQVEFGGFNQNCGNASDLAPQKQRTKPLIPEMCFTSTGCSTDINLSTPYLEEDGTSILVSCKKCSVRVHASCYGVPPAKASEDWMCSRCSANALEEDCCLCSLRGGALQRANDDRWVHVSCAVAILEARFVNIAERSPVDVSKIPLPRFKLKCIFCKKRRKRTAGCCVQCSHGRCPTAFHVSCAQAAGVMMQPDDWPFVVFITCFRHKIPNLERAKGALQSITAGQKVISKHKNGRFYQCEVVRLTTETFYEVNFDDGSFSDNLYPEDIVSQDCLQFGPPAEGEVVQVRWTDGQVYGAKFVASHPIQMYQVEFEDGSQLVVKRDDVYTLDEELPKRVKSRLSVASDMRFNEIFTEKEVKQEKKRQRVINSRYREDYIEPALYRAIME | + | +/−
2A-A236V: KDM4A mutation (protein) MASESETLNPSARIMTFYPTMEEFRNFSRYIAYIESQGAHRAGLAKVVPPKEWKPRASYDDIDDLVIPAPIQQLVTGQSGLFTQYNIQKKAMTVREFRKIANSDKYCTPRYSEFEELERKYWKNLTFNPPIYGADVNGTLYEKHVDEWNIGRLRTILDLVEKESGITIEGVNTPYLYFGMWKTSFAWHTEDMDLYSINYLHFGEPKSWYSVPPEHGKRLERLAKGFFPGSAQSCEVFLRHKMTLISPLMLKKYGIPFDKVTQEAGEFMITFPYGYHAGFNHGFNCAESTNFATRRWIEYGKQAVLCSCRKDMVKISMDVFVRKFQPERYKLWKAGKDNTVIDHTLPTPEAAEFLKESELPPRAGNEEECPEEDMEGVEDGEEGDLKTSLAKHRIGTKRHRVCLEIPQEVSQSELFPKEDLSSEQYEMTECPAALAPVRPTHSSVRQVEDGLTFPDYSDSTEVKFEELKNVKLEEEDEEEEQAAAALDLSVNPASVGGRLVFSGSKKKSSSSLGSGSSRDSISSDSETSEPLSCRAQGQTGVLTVHSYAKGDGRVTVGEPCTRKKGSAARSFSERELAEVADEYMFSLEENKKSKGRRQPLSKLPRHHPLVLQECVSDDETSEQLTPEEEAEETEAWAKPLSQLWQNRPPNFEAEKEFNETMAQQAPHCAVCMIFQTYHQVEFGGFNQNCGNASDLAPQKQRTKPLIPEMCFTSTGCSTDINLSTPYLEEDGTSILVSCKKCSVRVHASCYGVPPAKASEDWMCSRCSANALEEDCCLCSLRGGALQRANDDRWVHVSCAVAILEARFVNIAERSPVDVSKIPLPRFKLKCIFCKKRRKRTAGCCVQCSHGRCPTAFHVSCAQAAGVMMQPDDWPFVVFITCFRHKIPNLERAKGALQSITAGQKVISKHKNGRFYQCEVVRLTTETFYEVNFDDGSFSDNLYPEDIVSQDCLQFGPPAEGEVVQVRWTDGQVYGAKFVASHPIQMYQVEFEDGSQLVVKRDDVYTLDEELPKRVKSRLSVASDMRFNEIFTEKEVKQEKKRQRVINSRYREDYIEPALYRAIME | + | +
2A-R239H: KDM4A mutation (protein) MASESETLNPSARIMTFYPTMEEFRNFSRYIAYIESQGAHRAGLAKVVPPKEWKPRASYDDIDDLVIPAPIQQLVTGQSGLFTQYNIQKKAMTVREFRKIANSDKYCTPRYSEFEELERKYWKNLTFNPPIYGADVNGTLYEKHVDEWNIGRLRTILDLVEKESGITIEGVNTPYLYFGMWKTSFAWHTEDMDLYSINYLHFGEPKSWYSVPPEHGKRLERLAKGFFPGSAQSCEAFLHHKMTLISPLMLKKYGIPFDKVTQEAGEFMITFPYGYHAGFNHGFNCAESTNFATRRWIEYGKQAVLCSCRKDMVKISMDVFVRKFQPERYKLWKAGKDNTVIDHTLPTPEAAEFLKESELPPRAGNEEECPEEDMEGVEDGEEGDLKTSLAKHRIGTKRHRVCLEIPQEVSQSELFPKEDLSSEQYEMTECPAALAPVRPTHSSVRQVEDGLTFPDYSDSTEVKFEELKNVKLEEEDEEEEQAAAALDLSVNPASVGGRLVFSGSKKKSSSSLGSGSSRDSISSDSETSEPLSCRAQGQTGVLTVHSYAKGDGRVTVGEPCTRKKGSAARSFSERELAEVADEYMFSLEENKKSKGRRQPLSKLPRHHPLVLQECVSDDETSEQLTPEEEAEETEAWAKPLSQLWQNRPPNFEAEKEFNETMAQQAPHCAVCMIFQTYHQVEFGGFNQNCGNASDLAPQKQRTKPLIPEMCFTSTGCSTDINLSTPYLEEDGTSILVSCKKCSVRVHASCYGVPPAKASEDWMCSRCSANALEEDCCLCSLRGGALQRANDDRWVHVSCAVAILEARFVNIAERSPVDVSKIPLPRFKLKCIFCKKRRKRTAGCCVQCSHGRCPTAFHVSCAQAAGVMMQPDDWPFVVFITCFRHKIPNLERAKGALQSITAGQKVISKHKNGRFYQCEVVRLTTETFYEVNFDDGSFSDNLYPEDIVSQDCLQFGPPAEGEVVQVRWTDGQVYGAKFVASHPIQMYQVEFEDGSQLVVKRDDVYTLDEELPKRVKSRLSVASDMRFNEIFTEKEVKQEKKRQRVINSRYREDYIEPALYRAIME | +/− | +/−
2A-G278S: KDM4A mutation (protein) MASESETLNPSARIMTFYPTMEEFRNFSRYIAYIESQGAHRAGLAKVVPPKEWKPRASYDDIDDLVIPAPIQQLVTGQSGLFTQYNIQKKAMTVREFRKIANSDKYCTPRYSEFEELERKYWKNLTFNPPIYGADVNGTLYEKHVDEWNIGRLRTILDLVEKESGITIEGVNTPYLYFGMWKTSFAWHTEDMDLYSINYLHFGEPKSWYSVPPEHGKRLERLAKGFFPGSAQSCEAFLRHKMTLISPLMLKKYGIPFDKVTQEAGEFMITFPYGYHASFNHGFNCAESTNFATRRWIEYGKQAVLCSCRKDMVKISMDVFVRKFQPERYKLWKAGKDNTVIDHTLPTPEAAEFLKESELPPRAGNEEECPEEDMEGVEDGEEGDLKTSLAKHRIGTKRHRVCLEIPQEVSQSELFPKEDLSSEQYEMTECPAALAPVRPTHSSVRQVEDGLTFPDYSDSTEVKFEELKNVKLEEEDEEEEQAAAALDLSVNPASVGGRLVFSGSKKKSSSSLGSGSSRDSISSDSETSEPLSCRAQGQTGVLTVHSYAKGDGRVTVGEPCTRKKGSAARSFSERELAEVADEYMFSLEENKKSKGRRQPLSKLPRHHPLVLQECVSDDETSEQLTPEEEAEETEAWAKPLSQLWQNRPPNFEAEKEFNETMAQQAPHCAVCMIFQTYHQVEFGGFNQNCGNASDLAPQKQRTKPLIPEMCFTSTGCSTDINLSTPYLEEDGTSILVSCKKCSVRVHASCYGVPPAKASEDWMCSRCSANALEEDCCLCSLRGGALQRANDDRWVHVSCAVAILEARFVNIAERSPVDVSKIPLPRFKLKCIFCKKRRKRTAGCCVQCSHGRCPTAFHVSCAQAAGVMMQPDDWPFVVFITCFRHKIPNLERAKGALQSITAGQKVISKHKNGRFYQCEVVRLTTETFYEVNFDDGSFSDNLYPEDIVSQDCLQFGPPAEGEVVQVRWTDGQVYGAKFVASHPIQMYQVEFEDGSQLVVKRDDVYTLDEELPKRVKSRLSVASDMRFNEIFTEKEVKQEKKRQRVINSRYREDYIEPALYRAIME | − | −
